This experiment deals with T1, purified human complement factor H from human plasma/serum (human, UniProt P08603 19-1231).
T1 construct: human complement factor H, serum glycoprotein of 20 SCR domains (NCBI gene number 3075); also called FH; Human purified FH; source: bought: Sigma/Merck C5813 (batch SLCP3577), purified from human plasma; provided by Prof; Clark
As to the kind of experiment: SPR; Biacore T100, CM5 chip; FH (750 RU), rFHL-1 or rFH15-20 (200 RU) amine-coupled as ligands; CspZ or FhbA as analytes; PBS with 0.05% Tween20, 25 °C, 30 µl/min; single-cycle and multiple-cycle kinetics, Langmuir 1:1 model; in duplicate. Particulars: both partners purified. On the technique in general: In SPR one partner is held on a chip, and binding of the other changes the refractive index at the surface.

T1 sequence (P08603 19-1231): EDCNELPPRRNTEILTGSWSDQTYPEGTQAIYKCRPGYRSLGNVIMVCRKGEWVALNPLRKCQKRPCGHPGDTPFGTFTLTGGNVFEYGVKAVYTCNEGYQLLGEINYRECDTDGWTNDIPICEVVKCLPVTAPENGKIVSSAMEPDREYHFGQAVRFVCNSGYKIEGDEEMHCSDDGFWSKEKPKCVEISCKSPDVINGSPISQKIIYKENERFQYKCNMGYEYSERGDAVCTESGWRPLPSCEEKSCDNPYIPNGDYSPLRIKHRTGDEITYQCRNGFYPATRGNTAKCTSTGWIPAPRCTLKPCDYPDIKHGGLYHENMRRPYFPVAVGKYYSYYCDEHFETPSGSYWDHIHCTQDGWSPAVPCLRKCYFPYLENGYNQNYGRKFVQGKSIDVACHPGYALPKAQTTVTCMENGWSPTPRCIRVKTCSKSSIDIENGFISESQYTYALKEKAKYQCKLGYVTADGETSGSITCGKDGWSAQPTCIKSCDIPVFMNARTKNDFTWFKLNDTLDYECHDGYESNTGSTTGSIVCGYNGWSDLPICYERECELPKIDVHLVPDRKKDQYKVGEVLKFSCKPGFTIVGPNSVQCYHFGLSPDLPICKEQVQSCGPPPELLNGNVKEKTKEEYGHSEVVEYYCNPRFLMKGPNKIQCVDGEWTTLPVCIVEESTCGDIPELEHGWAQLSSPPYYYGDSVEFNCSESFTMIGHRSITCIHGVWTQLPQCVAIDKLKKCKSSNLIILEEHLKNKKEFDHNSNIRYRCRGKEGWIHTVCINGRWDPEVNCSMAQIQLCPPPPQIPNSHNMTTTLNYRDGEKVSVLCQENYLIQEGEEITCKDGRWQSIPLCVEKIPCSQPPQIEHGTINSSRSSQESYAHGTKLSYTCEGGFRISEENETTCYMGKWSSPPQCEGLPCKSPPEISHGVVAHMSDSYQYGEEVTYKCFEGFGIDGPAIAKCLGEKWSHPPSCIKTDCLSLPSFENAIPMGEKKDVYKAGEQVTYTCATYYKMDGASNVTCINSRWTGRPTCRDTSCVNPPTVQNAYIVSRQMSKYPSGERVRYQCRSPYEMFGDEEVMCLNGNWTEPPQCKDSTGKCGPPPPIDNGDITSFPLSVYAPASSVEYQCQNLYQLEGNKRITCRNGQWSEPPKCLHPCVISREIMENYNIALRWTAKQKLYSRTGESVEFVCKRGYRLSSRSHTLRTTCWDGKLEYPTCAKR

B1: CspZ from Borrelia burgdorferi sensu stricto (complement regulator-acquiring surface protein 2) (natural protein)
chain: DVSRLNQRNINELKIFVEKAKYYSIKLDAIYNECTGAYNDIMTYSEGTFSDQSKVNQAISIFKKDNKIVNKFKELEKIIEEYKPMFLSKLIDDFAIELDQAVDNDVSNARHVADSYKKLRKSVVLAYIESFDVISSKFVDSKFVEASKKFVNKAKEFVEENDLIALECIVKTIGDMVNDREINSRSRYNNFYKKEADFLGAAVELEGAYKAIKQTLL
notes: CspZ (BbCRASP-2/BBH06), surface lipoprotein of Borrelia burgdorferi sensu stricto (NCBI txid139), encoded by cspZ on lp28-3; theoretical mass of the tagged protein 27.5 kDa, measured mass fits the predicted value without the N-terminal methionine; Two plasmids coding for N-terminally His6-tagged CspZ are named (pET-45(+) from Prof. Marconi, pETM-11 from Dr. Brangulis); also called BbCRASP-2; …
For the molecule B1, the equilibrium dissociation constant (Kd) (commonly a measure of binding affinity in units of concentration) was 0.209 ± 0.141 nM; the koff (as a rule, the first-order rate constant of dissociation) worked out at 5.31e-05 s⁻¹; the kon (as a rule, the second-order rate constant of association) came to 255000 M⁻¹ s⁻¹.

For the origin of these results see publication PMC11266248, “Production, purification, and quality assessment of borrelial proteins CspZ from Borrelia burgdorferi and FhbA from Borrelia hermsii” (Applied Microbiology and Biotechnology, 2024).
